According to the DeepSol protein solubility set:

Assay: soluble on expression in E. coli; label from the status in PepcDB or PDB records

Row | Sequence | soluble on expression in E. coli
1 | MSAKEKFTSLSPAEFFKRNPELAGFPNPARALYQTVRELIENSLDATDVHGILPNIKITIDLIDDARQIYKVNVVDNGIGIPPQEVPNAFGRVLYSSKYVNRQTRGMYGLGVKAAVLYSQMHQDKPIEIETSPVNSKRIYTFKLKIDINKNEPIIVERGSVENTRGFHGTSVAISIPGDWPKAKSRIYEYIKRTYIITPYAEFIFKDPEGNVTYYPRLTNKIPKPPQEVKPHPYGVDREEIKILINNLKRDYTIKEFLVNEFQSIGDTTADKILELAGLKPNKKVKNLTEEEITRLVETFKKDEDFRSPSADSLSVIGEDLIELGLKKIFNPDFAASITRKPKAYQGHPFIVEAGVAFGGSIPVGEEPIVLRYANKIPLIYDEKSDVIWKVVEELDWKRYGIESDQYQMVVMVHLCSTKIPYKSAGKESIAEVENIEKEIKNALMEVARKLKQYLSEKRKEQEAKKKLLAYLKYIPEVSRSLATFLASGNKELVSKYQNEISEGLFKLISKKLDLINIEEYRKVYRVDSE | soluble
2 | MAHHHHHHMLRHCTAHRRYRTAWRELLHPLPVRARKMEWLKRDAVEENEEILRRPYYTIKSYALPPAVGRQESIHNSNNIRGGMHSSHSLDLIMRQPRRVKTPEQLQALRDRLRFIGVTGPMPQATSVSTKSYADTYGSRLRPRYPESWDTVPPHQPSRELL | soluble
3 | MRVLVRNDKDDFRVKAYAGTNGVLLAMDLDASRRQGLLGFAIEKQTGSKPWLFLFNSLTFPGKAHTFPQYNATPSDQAPLQKFRWADYAVNPGATLNYRVHLAYGNPDAPQLGESLQLSITADNGQPPGQRVIFNRAVAASQAFSRKFPELDALLSANKNLPIEKWPDAPRQWLENGLLEALLGFIQRATDASWSLDIAIYEYQLQAIIDAVNAAFDRGVQVRVLYHAAPGDADTTMNQASLQHLPEANKRGRVTHAIFHDKFIVLGRLDAAGQRQPQSVLCGSTNFTANGVYRQANVLHSLDHVDIATRYLEVFEQVWATPADVGATRTWLTRNNPMQPQAPLFAGFSPRSGQGDLAEFVDIINGARRDLLFVTAFALPDSILDALLGQPHDDVLRYGLQNTASRITGFHADRTAEFAATALLNNGLEGWLKEGLKGQKGNLLVHTKAIVTDFTSEAPVIISGSHNLSVGASQSNDENFLIIRGDIDLADRYGLELLRFYEHYRFRYFARQLALKQVQPLAVDDSWSNAYYLEGDLRQLSRLRFSGRLEHHHHHH | not soluble
4 | MEKPASKSKRKPKETSDDVDADVLPEKGLHNSDGFLFYHASFRPLTSAQHRRAEEHGIDLKTKKVFTVEESIQVFENWRKFATEHNMKLAKAPEYISPKKTDRHIFKHQEEHHFWPKLCDGLPHRPACTIKMRAISMMTSSFMENLEWSRLAEEIKAKLHTYETNDDLTMQKAQKLLEKGYAASHVAEILNVSNGKMSSMASKLRTLEARNDPTMIHAFYESTVYFGLKLKKLRRAITTNDDYRIESVRRKVRLEEIGLQLHISEQKCKDLLKIVIETIRTKYTESLEEAGLDEDEAWSKALALVDSRPPIEESQLYKALEIICKHIEKAETTGSLLSHEQLPSIIKSHGITGFQSDRSEYAYLHFRLCGLLMHQLTTGFFEHLRREFPLQIKLHCLLWSYKRLDVWEKICVEEGKTRYETVLKSEIANPLASKMTLKFLKNEKVVEWISDPRPPKNRQKAATRRLETAIESFILYSYNKFGETFKFPAKFRRILHTSKTVRSVLEVVSDPENAEFLSIKEARKTVEDASGCKIAVKIKNKRIVPKLKDESDASEDGESENSDSEDLIKHSHSIERSAFEERRDEIEKVLQRADPSKIRAKFRKKDEIPEEILLSKELRQQKRAMTRAAEKLERLEAKICSAEFIDDGSGCSYSQVDEDLLEREKKRKRKKSEASEVVIGTDQLDTAEDLQGSKKKKHAEVLEGKDHEDTGCSDSQQVMDPEVCEDLVEKEKKKKRKRKISEASEVVIGMNQMERAEDLQRSKKKKHAEILEGNDHEDSENLKKRSKKKKKRKDHDAEFDAELDLDSENLDEEPKKRKKHC | soluble
5 | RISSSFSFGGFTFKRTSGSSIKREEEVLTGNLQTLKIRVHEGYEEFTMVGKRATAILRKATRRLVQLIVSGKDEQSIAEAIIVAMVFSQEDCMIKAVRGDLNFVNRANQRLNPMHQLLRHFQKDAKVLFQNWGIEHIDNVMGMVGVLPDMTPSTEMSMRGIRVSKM | soluble
6 | MGLKDWIEAPAAAVVPAKRSKLNWLRGAAARLTTPLLPDDYLHLANPLWSARELRGQIVEVRAETADSATIVIKPGWGFDFDYEPGQYIGIGLHIDGRWHWRSYSLTSPPNWDDKLISIAVKAMPEGFLSSHLVNGVPSGTIVRLATPTGNFALPDPPPERILFLTAGSGITPVMAMLRTMNRRGQLPDVFHVHSAPTDADVMFADELTQLHEEHDDFRCKIQLTRSQGKFALSSLDEVCPDWRERQTWACGPLPMLDEIETLWRDEGIENKLHLERFAVSRADTSGEGGTVTFAKADKTVSVDGATTLLEAGEQVGALMPFGCRMGICQTCVVPILAGHAIDLRSGKQHAEGDRVQTCISAAAGDCTLDA | not soluble
7 | MAQVLRGTVTDFPGFDERADAETLRKAMKGLGTDEESILTLLTSRSNAQRQEISAAFKTLFGRDLLDDLKSELTGKFEKLIVALMKPSRLYDAYELKHALKGAGTNEKVLTEIIASRTPEELRAIKQVYEEEYGSSLEDDVVGDTSGYYQRMLVVLLQANRDPDAGIDEAQVEQDAQALFQAGELKWGTDEEKFITIFGTRSVSHLRKVFDKYMTISGFQIEETIDRETSGNLEQLLLAVVKSIRSIPAYLAETLYYAMKGAGTDDHTLIRVMVSRSEIDLFNIRKEFRKNFATSLYSMIKGDTSGDYKKALLLLCGEDD | soluble
8 | MGSDKIHHHHHHMLITAYRERQTRHREKIQRLLNFLKEETYSDFKILMLLFGFRDHKSLYSLLSKVEGMGLIKKHVLVSRTMKISLWGITSDGLAVVLTPDDAIFPARFEPSKITGWTLEHHLDNQVARITLEQKGASGWVNGDRTTFLSRYEVSHRPDGLITLPGGTVIAIETERRLKTKARYQSILASHLLARTRKNWIYVFYIVPDPQKKRGLERLFEGIRHVIINHQHIPLETRHRNVFRIYTLDELQRLNLGHCL | not soluble
9 | MSLQNVESELKDIRLPYKTKSLCPECLKILEAEVYEENGKVMIRKVCEEHGEFVDVYWGDAEMFKKAARFAADGHGISTPITQNTTCPFSCGLCNNHKSHTALLNIVLTNRCDLACWYCFFYARRAGYVYEPTIEQIREMVRKAKNMKPIGCNAVQLTGGEPTLRDDLIDIIRMIKEEGYDHIQLNTNGIRLAEDPDFALRVRVAGVNTVYLSFDGVDEKTNPKNHHEIPKILENCRRAQLGLVLVPTVIKGVNDHQLGDIIRFAAENIDIVRGVNFQPVSLVGSMPRKEREQFRITIPDCIKAIEEQTNGEIGREDFYPVPSVVPISRFVEALTGQPQYELTTHFACGMATYIFKDNGRLIPITRFVDVEGLFEFLNEKAEEIAKSRMKTIRAIKDIIDLRKFVDTSKAPKGFNIAKILYEVLIKHDYSTLGEFHVKSLFIGMMHFQDLYNYDIARVERCEIHYGSPDGRIIPFCTFNVIPERYRDAIHEKYGIPIEEWEKRTGRKLKDDIKRAVRRPEGHHHHHH | soluble
10 | MTQRPWSKLQREIYDLLTPTINLQIHCTRYPMRSQNGGSTDLPRYWITLDKNVIWDYPKDFIAGNAGVRNFHGETCWYPYLTDICSISDLLREYIDTPKAELLTKQFTSDKWGLVNILRAADRRIGMRRLDQLRRKTHNIAALKIIARRSE | not soluble
11 | MLTLYTSPSCTSCRKARAWLQEHEIPFKERNIFSEPLNIEELKAILIMTEDGTEEIISTRSKVFQKLNMDLDELPLQDLLELVQENPGLLRRPIMIDEKRLQVGFNEDEIRRFLPRDVRQLELRQAQLMAGL | soluble
12 | MPLSKRRAAGRINGLKGPPAKKRKEIERHEALLMHPLAYTAEQYEQVAEESKFYKNCFETTAAENVELLKSNDQLKKELELLKNQQGNQLKVDMKFKSQIESTRQSNMTLLREREIWQNRYYDVLAEKLALSARVKSMMGDIVESVEVPNDSNGNTWELREDLEIDRSARRKTEEEPKAQKMNSTRGSLPRNQCSTRSNNQTPNEMLLKMAIGLDTTSVN | not soluble
13 | MKKMFLILASAVVSLTACSKDSGDDDSPPIEKQPFNAVIKDGFKDENGVDLLPPRNIGNIKVGDYIPYNVTITDEVAEQEGETYRVVASTYDEGTHQERSVSYDIYLADKEDPTKMVLLENPEQLTFNKRGTYSFFIYPKEAGTYNLRFLLEKSVNNQKIGTSAIPIVTFNAVRITAYSHGYFTGKWKWEWSDSFIPILEEHSVNRRKFFFKIDDGSTEKDKYLQPEKAGIFYFTEYNGDNRGPLSFTVGAEYEYYPEQERTRAIQYLIFLLLK | not soluble
14 | MSLTKIVLITGANKGIGFETAKQIGKNGWTLLISTRNEERGKNAVHQLQQDGITAEWLQIDLNDIASIHKAARYVEERYPKLDGLINNAGISGDMQKNPLELKSSELEQLAKVNFLGNFEMIKSFTPILSRNHGRILNVTIPATPIGSFNPLGYLASKASLNSMIKSFAMYYKKHEIPVEIFGVLPGGISTDLNQHQSGLLIRTVQEGGESIAKVMMDRHNHQGKLLMRMGLTQLARNFVFRRHDEGHHHHHH | not soluble
15 | MSDMSDLEDDQTGHCGSGEHSGPFDPKRHAREQHNALERRRRDNIKDMYTSLREVVPDANGERVQASRAVILKKAIESIEKGQSDSATLSVDVAEQESKNAKLREEIARLKAKKDPSSSQSIIQ | not soluble
16 | GHMSGFKHVSHVGWDPQNGFDVNNLDPDLRSLFSRAGISEAQLTDAETSKLIYDFIEDQGGLEAVRQEMRRQ | soluble
17 | MGHHHHHHSHRRQHPLPLLLLRHLRPQAHREPPQVYTSSQPLRVGYYETDNYTMPSPAMRRAVLETKQSLEAAGHTLVPFLPSNIPHALETLSTGGLFSDGGHTFLQNFKGDFVDPCLGDLVSILKLPQWLKGLLAFLVKPLLPRLSAFLSNMKSRCTAKP | not soluble
18 | MSLTNDYRFEFRPYQRRFLRSLTTNHGKWDIREGIILRLTDETLRVGWGEIAPISWFGSETLEQVLDFCRQLPGEITDETIFSIPDELPACQFGFESAWEWGSWKWGNEFFSMPNAQCPMPNAQSFSALLPFGEAALNQWETLWQKGYRTFKWKIGVDAIADELKIFESLTRILPASTKLRLDANGGLSYEEANLWLRTCDNLKANAELPLEIEFIEQPLPVEQFQQMLELSTSYETAIALDESVATLKQLAACHQQGWREIFVIKPGIVGSPSRLRKFCHQHQIDTVFSSVLETAIGRLAALQIAAELSRNNRAIGFGIDHFFEQEETWFQTLWNDLEGHHHHHH | soluble
19 | TSTMTDTVFSNSSNRWMYPSDRPLQSNDKEQLQAGWSVHPGGQPDRQRKQEELTDEEKEIINRVIARAEKMEEMEQERIGRLVDRLENMRKNVAGDGVNRCILCGEQLGMLGSACVVCEDCKKNVCTKCGVETNNRLHSVWLCKICIEQREVWKRSGAWFFKGFPKQVLPQPMPIKKTKPQQPVSEPAAPEQPAPEPKHPARAPARGDSEDRRGPGQKTGPDPASAPGRGNYGPPVRRASEARMSSSSRDSESWDHSGGAGDSSRSPAGLRRANSVQASRPAPGSVQSPAPPQPGQPGTPGGSRPGPGPAGRFPDQKPEVAPSDPGTTAPPREERTGGVGGYPAVGAREDRMSHPSGPYSQASAAAPQPAAARQPPPPEEEEEEANSYDSDEATTLGALEFSLLYDQDNSSLQCTIIKAKGLKPMDSNGLADPYVKLHLLPGASKSNKLRTKTLRNTRNPIWNETLVYHGITDEDMQRKTLRISVCDEDKFGHNEFIGETRFSLKKLKPNQRKNFNICLERVIPMKRAGTTGSARGMALYEEEQVERVGDIEERGKILVSLMYSTQQGGLIVGIIRCVHLAAMDANGYSDPFVKLWLKPDMGKKAKHKTQIKKKTLNPEFNEEFFYDIKHSDLAKKSLDISVWDYDIGKSNDYIGGCQLGISAKGERLKHWYECLKNKDKKIERWHQLQNENHVSSD | soluble
